Measurements from patent US20210130491A1 (ONCOTAG DIAGNOSTICS, published 2021).
Values belong to the binder of their own block, whether it stands above or below them.

Experiments:
Assay in all cases: ELISA, protein coated at 1 ug/ml
[1] = target: T1, His-KRS (UniProt Q15046 1-597)
T1 construct: not shown: His tag
Protocol: (§1) Each well of 96 well plates (Corning 3690 flat bottom, 96-well half-area plates) was coated with different kinds of ARS proteins (His-MRS, MRS full, DX2 tag free, 34S-DX2, 34S-AIMP2, His-CRS, His-AIMP1, His-GRS, His-WRS, His-KRS) at the concentration of 1 μg/ml. 1E8 and 8A12 antibodies at a concentration of 500 ng/ml were added onto the 96 well plates coated with ARS proteins and allowed to react for 1 hour. Thereafter, HRP-conjugated anti-mouse IgG secondary antibody was added and reacted for 1 hour. ELISA was performed and absorbance was measured at 450 nm. TMB (3,3′,5,5′-tetramethylbenzidine) was used as substrate.

[2] = target: T2, His-GRS (UniProt P41250 55-739)
T2 construct: not shown: His tag
T2 sequence (looked up): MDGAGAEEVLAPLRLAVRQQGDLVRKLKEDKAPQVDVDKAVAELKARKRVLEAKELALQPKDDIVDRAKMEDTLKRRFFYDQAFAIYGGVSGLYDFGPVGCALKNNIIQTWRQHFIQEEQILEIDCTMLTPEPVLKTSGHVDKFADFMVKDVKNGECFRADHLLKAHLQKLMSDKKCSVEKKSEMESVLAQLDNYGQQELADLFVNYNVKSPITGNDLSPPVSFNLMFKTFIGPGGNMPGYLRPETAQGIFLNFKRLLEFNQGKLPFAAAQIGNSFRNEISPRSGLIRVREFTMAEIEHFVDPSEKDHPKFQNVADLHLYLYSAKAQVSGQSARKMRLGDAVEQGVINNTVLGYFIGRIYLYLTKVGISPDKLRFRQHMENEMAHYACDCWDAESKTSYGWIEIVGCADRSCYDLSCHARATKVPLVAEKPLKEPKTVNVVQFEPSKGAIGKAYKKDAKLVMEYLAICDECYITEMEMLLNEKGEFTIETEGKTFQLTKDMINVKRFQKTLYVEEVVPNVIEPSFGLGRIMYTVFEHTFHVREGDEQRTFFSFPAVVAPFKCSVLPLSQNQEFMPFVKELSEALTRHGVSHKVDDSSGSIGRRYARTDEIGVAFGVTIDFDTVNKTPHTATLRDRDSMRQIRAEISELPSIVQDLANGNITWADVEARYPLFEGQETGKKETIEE
Protocol: as §1

[3] = target: T3, His-CRS (UniProt P49589 1-748)
T3 construct: not shown: His tag
T3 sequence (looked up): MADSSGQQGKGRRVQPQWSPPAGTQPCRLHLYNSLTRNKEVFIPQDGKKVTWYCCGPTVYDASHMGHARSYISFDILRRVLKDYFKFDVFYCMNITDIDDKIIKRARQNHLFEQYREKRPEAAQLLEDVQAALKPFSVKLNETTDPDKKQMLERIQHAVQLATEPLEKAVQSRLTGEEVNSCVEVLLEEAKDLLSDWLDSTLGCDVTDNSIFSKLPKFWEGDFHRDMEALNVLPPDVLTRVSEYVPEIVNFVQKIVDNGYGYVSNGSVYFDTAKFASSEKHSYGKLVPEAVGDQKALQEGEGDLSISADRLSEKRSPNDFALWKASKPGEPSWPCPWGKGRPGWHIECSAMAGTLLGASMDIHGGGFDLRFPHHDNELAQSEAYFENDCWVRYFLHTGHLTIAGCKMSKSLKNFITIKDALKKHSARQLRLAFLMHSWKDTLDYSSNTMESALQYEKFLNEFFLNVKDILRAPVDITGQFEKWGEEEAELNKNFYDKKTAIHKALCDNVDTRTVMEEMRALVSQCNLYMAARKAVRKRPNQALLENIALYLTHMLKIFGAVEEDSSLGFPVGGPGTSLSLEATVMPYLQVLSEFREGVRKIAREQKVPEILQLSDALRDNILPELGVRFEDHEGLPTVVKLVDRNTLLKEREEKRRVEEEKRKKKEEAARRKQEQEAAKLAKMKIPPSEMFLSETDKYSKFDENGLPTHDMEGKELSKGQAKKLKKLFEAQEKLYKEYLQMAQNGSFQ
Protocol: as §1

[4] = target: T4, His-WRS (UniProt P23381 1-471, limits assumed)
T4 construct: not shown: His tag
T4 sequence (looked up): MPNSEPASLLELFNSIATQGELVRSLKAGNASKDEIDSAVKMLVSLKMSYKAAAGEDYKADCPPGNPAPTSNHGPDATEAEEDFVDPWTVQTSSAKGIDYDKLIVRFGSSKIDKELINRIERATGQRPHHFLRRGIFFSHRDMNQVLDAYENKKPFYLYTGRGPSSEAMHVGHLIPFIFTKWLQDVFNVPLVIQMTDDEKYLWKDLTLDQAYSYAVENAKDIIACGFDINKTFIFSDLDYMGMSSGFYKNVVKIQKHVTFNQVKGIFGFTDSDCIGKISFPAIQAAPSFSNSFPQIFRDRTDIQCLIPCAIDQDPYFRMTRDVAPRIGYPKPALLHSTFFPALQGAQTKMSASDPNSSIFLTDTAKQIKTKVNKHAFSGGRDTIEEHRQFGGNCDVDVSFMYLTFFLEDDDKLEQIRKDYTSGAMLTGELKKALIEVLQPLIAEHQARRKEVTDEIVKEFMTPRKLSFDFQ
Protocol: as §1

[5] = target: T5, His-AIMP1 (UniProt Q12904 1-312, limits assumed)
T5 construct: not shown: His tag
T5 sequence (looked up): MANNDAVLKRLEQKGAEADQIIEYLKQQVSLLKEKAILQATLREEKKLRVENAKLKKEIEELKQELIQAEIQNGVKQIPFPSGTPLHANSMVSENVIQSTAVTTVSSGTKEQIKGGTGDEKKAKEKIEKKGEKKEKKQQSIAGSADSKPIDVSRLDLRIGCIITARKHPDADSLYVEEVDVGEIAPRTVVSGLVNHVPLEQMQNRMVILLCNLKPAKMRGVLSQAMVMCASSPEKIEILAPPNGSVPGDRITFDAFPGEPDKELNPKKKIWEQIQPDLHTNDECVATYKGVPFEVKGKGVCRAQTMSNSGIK
Protocol: as §1

[6] = target: T6, 34S-AIMP2 (UniProt Q13155 1-320)
T6 construct: not shown: '34S' tag or fusion partner
T6 sequence (looked up): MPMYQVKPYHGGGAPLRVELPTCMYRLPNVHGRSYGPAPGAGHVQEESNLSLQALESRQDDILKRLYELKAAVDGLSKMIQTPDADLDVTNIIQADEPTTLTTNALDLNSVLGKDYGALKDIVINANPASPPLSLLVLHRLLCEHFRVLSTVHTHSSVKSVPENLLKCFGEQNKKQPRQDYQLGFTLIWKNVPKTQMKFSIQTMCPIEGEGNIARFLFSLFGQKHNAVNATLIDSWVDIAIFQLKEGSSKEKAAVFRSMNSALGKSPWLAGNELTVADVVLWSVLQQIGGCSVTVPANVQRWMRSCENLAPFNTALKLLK
Protocol: as §1

T1 sequence (Q15046 whole entry): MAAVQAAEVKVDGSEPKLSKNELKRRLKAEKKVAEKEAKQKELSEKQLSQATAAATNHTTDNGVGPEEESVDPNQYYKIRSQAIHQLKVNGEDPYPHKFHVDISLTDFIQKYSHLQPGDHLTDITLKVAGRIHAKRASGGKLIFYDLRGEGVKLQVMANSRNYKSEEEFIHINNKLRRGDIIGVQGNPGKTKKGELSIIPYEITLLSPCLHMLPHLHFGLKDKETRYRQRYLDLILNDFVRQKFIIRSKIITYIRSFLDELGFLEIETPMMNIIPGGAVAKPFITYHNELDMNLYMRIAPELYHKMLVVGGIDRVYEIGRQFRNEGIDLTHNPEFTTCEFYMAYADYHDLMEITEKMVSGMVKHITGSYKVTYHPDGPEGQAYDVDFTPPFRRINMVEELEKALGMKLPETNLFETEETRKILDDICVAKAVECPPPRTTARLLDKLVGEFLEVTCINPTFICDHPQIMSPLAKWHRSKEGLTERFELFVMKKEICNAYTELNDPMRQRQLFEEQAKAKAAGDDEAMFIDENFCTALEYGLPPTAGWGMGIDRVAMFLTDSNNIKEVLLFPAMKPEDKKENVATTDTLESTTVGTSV

binding result [1]: no binding (tested: 500 ng/ml) | binding result [2]: no binding (tested: 500 ng/ml) | binding result [3]: no binding (tested: 500 ng/ml) | binding result [4]: no binding (tested: 500 ng/ml) | binding result [5]: no binding (tested: 500 ng/ml) | binding result [6]: no binding (tested: 500 ng/ml)
B1: 1E8 antibody (1E8 IgG) (antibody, V domains shown)
VH: DVKLQESGPGLVNPSQSLSLTCTVTGYSITSDYAWNWIRQFPGNKLEWMGYISYSGRTSYKSSLKSRISITRDTSKNQFFLELNSVTTEDTATYYCARDYGNFVGYFDVWGAGTTVTVSS
VL: DIVMTQSPSSLAVSVGEKVTMSCKSSQSLLYSSNQKNYLAWYQQKPGQSPKLLIYWASTRESGVPDRFTGSGSGTEFTLTISSVKAEDLAVYYCQQYYSYPTFGGGTKLEIKA
notes: Mouse monoclonal from hybridoma clone 1E8; also called IE8; anti-MRS antibody (1E8)

binding result [1]: no binding (tested: 500 ng/ml) | binding result [2]: no binding (tested: 500 ng/ml) | binding result [3]: no binding (tested: 500 ng/ml) | binding result [4]: no binding (tested: 500 ng/ml) | binding result [5]: no binding (tested: 500 ng/ml) | binding result [6]: no binding (tested: 500 ng/ml)
B2: 8A12 antibody (8A12 IgG) (antibody, V domains shown)
VH: DVKLQESGPGLVKPSQSLSLTCTVTGYSITSEYAWTWIRQFPGNKLEWMGYINYNGNTNLNPSLKSRISIIRDTSKNQFFLQLNSVTTEDTATYYCARSLWPRGWFAYWGQGTLVTVSA
VL: DIQMTQSPSSMYASLGERVTITCKASQDINSYLSWFQQKPGKSPKTLMYRANRLVDGVPSRFSGSGSGQDYSLTISSLEYEDMGIYYCLQYDEFPRTFGGGTKLEIKA
notes: Mouse monoclonal from hybridoma clone 8A12; also called 8Al2; anti-MRS antibody (8A12)
